Experimental data: US20210246166A1 (Bayer, published 2021)
Numbered stars: 1 amine (or outer) side, 2 acyl side, 3 side chain; on linkers, the order of the positions; unused ones are H or OH. Bridge positions count the residues as written; N and C are the ends. Square brackets hold non-standard residues; d marks the D form. Ends that are not written are not given here. * marks the point of attachment. PEG9(31 atoms) = 1-amino-3,6,9,12,15,18,21,24,27-nonaoxatriacontan-30-oic acid; (3-Chloro-Ph)G = 3-chlorophenylglycine, O=C([C@@H](N[*:1])c1cccc(Cl)c1)[*:2]; cPrCO(1-aminomethyl) = O=C(C1(CN[*:1])CC1)[*:2]; Pro(4-spirocPr) = O=C(O)[C@@H]1CC2(CC2)CN1; Oic = O=C(O)[C@@H]1C[C@@H]2CCCC[C@@H]2N1; Phe(3-Br) = N[C@@H](Cc1cccc(Br)c1)C(=O)O; Cyclobutanecarbonyl = O=C(C1CCC1)*; tBuAla = CC(C)(C)C[C@H](N)C(=O)O; Pen = CC(C)(S)[C@H](N)C(=O)O; NMeC = CN[C@@H](CS)C(=O)O; PEG3 = NCCOCCOCCOCCC(=O)O; Pip = O=C(O)[C@@H]1CCCCN1; PEG2 = NCCOCCOCCC(=O)O; Sar = CNCC(=O)O

T1: recombinant human MASP1 active protease (amino acids 297-699, C-terminal His Tag) (human, UniProt P48740 297-699)
T1 sequence: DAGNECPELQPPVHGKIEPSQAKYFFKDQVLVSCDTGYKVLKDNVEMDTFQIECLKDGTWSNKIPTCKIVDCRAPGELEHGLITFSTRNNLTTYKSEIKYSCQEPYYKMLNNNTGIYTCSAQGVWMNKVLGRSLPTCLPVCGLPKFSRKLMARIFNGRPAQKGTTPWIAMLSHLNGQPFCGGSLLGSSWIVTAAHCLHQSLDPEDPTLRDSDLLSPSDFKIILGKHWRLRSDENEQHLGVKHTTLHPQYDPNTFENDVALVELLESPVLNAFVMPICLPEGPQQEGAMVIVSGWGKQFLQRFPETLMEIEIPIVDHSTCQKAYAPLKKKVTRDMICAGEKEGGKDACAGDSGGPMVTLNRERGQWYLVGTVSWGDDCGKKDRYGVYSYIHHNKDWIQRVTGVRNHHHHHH

T2: recombinant rat MASP1 active protease (amino acids 302-704, C-terminal His Tag) (rat, UniProt Q8CHN8 302-704)
T2 sequence: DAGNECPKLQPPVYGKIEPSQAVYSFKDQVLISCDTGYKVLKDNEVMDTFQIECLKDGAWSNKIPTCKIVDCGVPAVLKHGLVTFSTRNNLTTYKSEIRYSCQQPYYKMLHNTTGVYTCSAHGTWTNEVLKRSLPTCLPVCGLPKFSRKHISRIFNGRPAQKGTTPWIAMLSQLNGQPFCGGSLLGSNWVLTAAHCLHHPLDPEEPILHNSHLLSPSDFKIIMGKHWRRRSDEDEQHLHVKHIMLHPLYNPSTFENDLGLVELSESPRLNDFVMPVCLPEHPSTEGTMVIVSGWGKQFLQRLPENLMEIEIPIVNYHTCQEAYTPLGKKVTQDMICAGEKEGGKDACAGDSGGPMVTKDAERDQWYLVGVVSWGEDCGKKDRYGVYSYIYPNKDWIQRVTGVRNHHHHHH

T3: Recombinant human MASP1 enzyme (fragment corresponding to amino acids 297-699, C-terminal His Tag) (human, UniProt P48740 297-699)
T3 sequence: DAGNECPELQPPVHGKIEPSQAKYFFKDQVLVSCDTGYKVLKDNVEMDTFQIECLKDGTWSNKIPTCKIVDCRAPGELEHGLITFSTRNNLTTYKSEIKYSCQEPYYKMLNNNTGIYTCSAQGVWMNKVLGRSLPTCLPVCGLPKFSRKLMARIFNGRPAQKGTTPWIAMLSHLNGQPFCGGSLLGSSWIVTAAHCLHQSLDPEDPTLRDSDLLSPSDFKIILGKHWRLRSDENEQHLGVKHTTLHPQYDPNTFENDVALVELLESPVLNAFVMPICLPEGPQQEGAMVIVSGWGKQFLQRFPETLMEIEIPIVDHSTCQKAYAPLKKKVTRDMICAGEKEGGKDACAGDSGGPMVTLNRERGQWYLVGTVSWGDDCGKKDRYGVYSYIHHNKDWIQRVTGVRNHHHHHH


Tests used:
Test in all cases: cell-based or functional assay
[1] = target: T1, recombinant human MASP1 active protease …
[2] = target: recombinant rat MASP2 active protease (amino acids 296-685, C-terminal His Tag) (rat, UniProt Q9JJS8 296-685)
recombinant rat MASP2 active protease (amino acids 296-685, C-terminal His Tag), sequence (Q9JJS8 other isoform, or with tags, fused parts or gaps limits assumed): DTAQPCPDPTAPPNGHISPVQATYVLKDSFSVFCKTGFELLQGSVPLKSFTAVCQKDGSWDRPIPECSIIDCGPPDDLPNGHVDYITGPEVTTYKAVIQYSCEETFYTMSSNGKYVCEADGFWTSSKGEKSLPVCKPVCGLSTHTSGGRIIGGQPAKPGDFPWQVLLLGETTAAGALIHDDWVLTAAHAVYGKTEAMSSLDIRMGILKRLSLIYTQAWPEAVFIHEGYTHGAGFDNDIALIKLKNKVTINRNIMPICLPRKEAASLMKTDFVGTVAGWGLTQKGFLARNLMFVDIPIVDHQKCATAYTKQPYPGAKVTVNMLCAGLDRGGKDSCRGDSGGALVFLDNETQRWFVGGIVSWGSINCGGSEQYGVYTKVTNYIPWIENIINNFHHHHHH

[3] = target: T2, recombinant rat MASP1 active protease …
[4] = target: T3, Recombinant human MASP1 enzyme …
[5] = target: Recombinant human MASP2 enzyme (fragment corresponding to amino acids 297-686, C-terminal His Tag) (human, UniProt O00187 297-686)
Recombinant human MASP2 enzyme (fragment corresponding to amino acids 297-686, C-terminal His Tag), sequence (O00187 other isoform, or with tags, fused parts or gaps limits assumed): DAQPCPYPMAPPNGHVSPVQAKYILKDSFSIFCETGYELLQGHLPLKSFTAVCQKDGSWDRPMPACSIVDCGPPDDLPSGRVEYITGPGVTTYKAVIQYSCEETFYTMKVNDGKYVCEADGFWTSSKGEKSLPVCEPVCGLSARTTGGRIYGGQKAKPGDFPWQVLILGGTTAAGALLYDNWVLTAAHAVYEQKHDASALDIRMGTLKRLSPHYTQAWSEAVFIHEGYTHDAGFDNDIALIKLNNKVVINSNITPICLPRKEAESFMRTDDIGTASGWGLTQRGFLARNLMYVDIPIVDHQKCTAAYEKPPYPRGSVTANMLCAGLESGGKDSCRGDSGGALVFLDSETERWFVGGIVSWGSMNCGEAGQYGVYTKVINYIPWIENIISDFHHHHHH

Binder	rat MASP2 IC50 [2]	rat MASP1 IC50 [3]	other results
[Phe(3-Br)]ICSRS[tBuAla]PPI[Pen]IPD-NH2 (disulfide 3-11; N-terminus assumed; SMILES CC[C@H](C)[C@H](NC(=O)[C@@H](N)Cc1cccc(Br)c1)C(=O)N[C@H]1CSSC(C)(C)[C@@H](C(=O)N[C@H](C(=O)N2CCC[C@H]2C(=O)N[C@@H](CC(=O)O)C(N)=O)[C@@H](C)CC)NC(=O)[C@H]([C@@H](C)CC)NC(=O)[C@@H]2CCCN2C(=O)[C@@H]2CCCN2C(=O)[C@H](CC(C)(C)C)NC(=O)[C@H](CO)NC(=O)[C@H](CCCNC(=N)N)NC(=O)[C@H](CO)NC1=O) [Example 330: ((3-Bromo)F)-IC+SRS-((tBu)A)-PPI-(Pen)+IPD-NH2]	–	–	human MASP1 IC50 [1]: 24 nM
[Sar]ICSRSLPPICIPN-OH (disulfide 3-11; N-terminus assumed; SMILES CC[C@H](C)[C@H](NC(=O)CNC)C(=O)N[C@H]1CSSC[C@@H](C(=O)N[C@H](C(=O)N2CCC[C@H]2C(=O)N[C@@H](CC(N)=O)C(=O)O)[C@@H](C)CC)NC(=O)[C@H]([C@@H](C)CC)NC(=O)[C@@H]2CCCN2C(=O)[C@@H]2CCCN2C(=O)[C@H](CC(C)C)NC(=O)[C@H](CO)NC(=O)[C@H](CCCNC(=N)N)NC(=O)[C@H](CO)NC1=O) [Example 394: ((N-Me)G)-IC+SRSLPPIC+IPN-OH]	–	–	human MASP1 IC50 [1]: 52 nM
AICSRSLP[Oic]I[Pen]IPD-OH (disulfide 3-11; also: choline salt) [Example 432: AIC+SRSLP-(Oic)-I-(Pen)+IPD-OH (choline-salt)]	–	–	human MASP1 IC50 [1]: 2.7 nM
AICSRSLP[Oic]I[Pen]IPD-OH (disulfide 3-11; also: HCl salt) [Example 29: AIC+SRSLP-(Oic)-I-(Pen)+IPD-OH (HCl salt)]	17.4 nM	–	–
[Sar]ICSRS[tBuAla]PPI[Pen]IP[PEG9(31 atoms)]-NH2 (disulfide 3-11) [Example 44: ((N-Me)G)-IC+SRS-((tBu)A)-PPI-(Pen)+IP-(PEG9(31 atoms))-NH2]	35 nM	87 nM	–
[cPrCO(1-aminomethyl)]ICSRS[tBuAla]PPI[Pen]IPD-NH2 (disulfide 3-11; N-terminus assumed; SMILES CC[C@H](C)[C@@H]1NC(=O)[C@@H]2CCCN2C(=O)[C@@H]2CCCN2C(=O)[C@H](CC(C)(C)C)NC(=O)[C@H](CO)NC(=O)[C@H](CCCNC(=N)N)NC(=O)[C@H](CO)NC(=O)[C@@H](NC(=O)[C@@H](NC(=O)C2(CN)CC2)[C@@H](C)CC)CSSC(C)(C)[C@@H](C(=O)N[C@H](C(=O)N2CCC[C@H]2C(=O)N[C@@H](CC(=O)O)C(N)=O)[C@@H](C)CC)NC1=O) [Example 32: (ACMP)-IC+SRS-((tBu)A)-PPI-(Pen)+IPD-NH2]	48 nM	56 nM	–
ICSRS[tBuAla]PPI[Pen]IPP-NH2 (disulfide 2-10; N-terminus assumed; SMILES CC[C@H](C)[C@H](N)C(=O)N[C@H]1CSSC(C)(C)[C@@H](C(=O)N[C@H](C(=O)N2CCC[C@H]2C(=O)N2CCC[C@H]2C(N)=O)[C@@H](C)CC)NC(=O)[C@H]([C@@H](C)CC)NC(=O)[C@@H]2CCCN2C(=O)[C@@H]2CCCN2C(=O)[C@H](CC(C)(C)C)NC(=O)[C@H](CO)NC(=O)[C@H](CCCNC(=N)N)NC(=O)[C@H](CO)NC1=O) [IC+SRS-((tBu)A)-PPI-(Pen)+IPP-NH2]	–	–	human MASP1 IC50 [4]: 19 nM; human MASP2 IC50 [5]: 500 nM
AICSRSLPP[(3-Chloro-Ph)G]CIPD-NH2 (disulfide 3-11; N-terminus assumed; SMILES CC[C@H](C)[C@H](NC(=O)[C@H](C)N)C(=O)N[C@H]1CSSC[C@@H](C(=O)N[C@H](C(=O)N2CCC[C@H]2C(=O)N[C@@H](CC(=O)O)C(N)=O)[C@@H](C)CC)NC(=O)[C@H](c2cccc(Cl)c2)NC(=O)[C@@H]2CCCN2C(=O)[C@@H]2CCCN2C(=O)[C@H](CC(C)C)NC(=O)[C@H](CO)NC(=O)[C@H](CCCNC(=N)N)NC(=O)[C@H](CO)NC1=O) [AIC+SRSLPP-((3-Chloro-Ph)G)-C+IPD-NH2]	–	–	human MASP1 IC50 [4]: 19 nM; human MASP2 IC50 [5]: 1400 nM
Cyclobutanecarbonyl-ICSRS[tBuAla]PPI[NMeC]I-NH2 (disulfide 2-10; SMILES CC[C@H](C)[C@H](NC(=O)[C@@H]1CSSC[C@H](NC(=O)[C@@H](NC(=O)C2CCC2)[C@@H](C)CC)C(=O)N[C@@H](CO)C(=O)N[C@@H](CCCNC(=N)N)C(=O)N[C@@H](CO)C(=O)N[C@@H](CC(C)(C)C)C(=O)N2CCC[C@H]2C(=O)N2CCC[C@H]2C(=O)N[C@@H]([C@@H](C)CC)C(=O)N1C)C(N)=O) [(Cyclobutanecarboxylic)-IC+SRS-((tBu)A)-PPI-((N-Me)C)+I-NH2]	–	–	human MASP1 IC50 [4]: 18 nM; human MASP2 IC50 [5]: 19 nM
[Sar]ICSRSLP[Oic]I[Pen]IP-{PEG3-NH2} (disulfide 3-11) [Example 7: ((N-Me)G)-IC+SRSLP-(Oic)-I-(Pen)+IP-(PEG2(13 atoms))-NH2]	16 nM	30 nM	–
AICSRS[tBuAla]P[Pro(4-spirocPr)]I[NMeC]IPD-NH2 (disulfide 3-11; N-terminus assumed; SMILES CC[C@H](C)[C@H](NC(=O)[C@H](C)N)C(=O)N[C@H]1CSSC[C@@H](C(=O)N[C@H](C(=O)N2CCC[C@H]2C(=O)N[C@@H](CC(=O)O)C(N)=O)[C@@H](C)CC)N(C)C(=O)[C@H]([C@@H](C)CC)NC(=O)[C@@H]2CC3(CC3)CN2C(=O)[C@@H]2CCCN2C(=O)[C@H](CC(C)(C)C)NC(=O)[C@H](CO)NC(=O)[C@H](CCCNC(=N)N)NC(=O)[C@H](CO)NC1=O) [Example 41: AIC+SRS-((tBu)A)-P-((6S)-5-Azaspiro[2.4]heptane-6-carboxylic acid)-I-((N-Me)C)+IPD-NH2]	13 nM	28 nM	–
AICSRSLP[Oic]I[Pen]IPD-OH (disulfide 3-11; also: TFA salt) [Example 13: AIC+SRSLP-(Oic)-I-(Pen)+IPD-OH]	16.4 nM	–	–
AICSRSLP[Oic]I[Pen]IPD-OH (disulfide 3-11; also: sodium salt) [Example 431: AIC+SRSLP-(Oic)-I-(Pen)+IPD-OH (sodium salt)]	–	–	human MASP1 IC50 [1]: 2 nM
[Sar]ICSRS[tBuAla]PPI[Pen]IP-{PEG2-NH2} (disulfide 3-11; also: HCl salt) [Example 39: ((N-Me)G)-IC+SRS-((tBu)A)-PPI-(Pen)+IP-(PEG1(10 atoms))-NH2 (HCl salt)]	37 nM	49 nM	–
GICSRSL[Pip]PICID-OH (disulfide 3-11; N-terminus assumed; SMILES CC[C@H](C)[C@H](NC(=O)CN)C(=O)N[C@H]1CSSC[C@@H](C(=O)N[C@H](C(=O)N[C@@H](CC(=O)O)C(=O)O)[C@@H](C)CC)NC(=O)[C@H]([C@@H](C)CC)NC(=O)[C@@H]2CCCN2C(=O)[C@@H]2CCCCN2C(=O)[C@H](CC(C)C)NC(=O)[C@H](CO)NC(=O)[C@H](CCCNC(=N)N)NC(=O)[C@H](CO)NC1=O) [Example 401: GIC+SRSL-(Pip)-PIC+ID-OH]	–	–	human MASP1 IC50 [1]: 56 nM
AICSRSLP[Oic]I[Pen]IPD-OH (disulfide 3-11) [Example 5: AIC+SRSLP-(Oic)-I-(Pen)+IPD-OH (salt free form)]	49 nM	–	–
AICSRS[tBuAla]PPI[Pen]IP[dE]-NH2 (disulfide 3-11; N-terminus assumed; SMILES CC[C@H](C)[C@H](NC(=O)[C@H](C)N)C(=O)N[C@H]1CSSC(C)(C)[C@@H](C(=O)N[C@H](C(=O)N2CCC[C@H]2C(=O)N[C@H](CCC(=O)O)C(N)=O)[C@@H](C)CC)NC(=O)[C@H]([C@@H](C)CC)NC(=O)[C@@H]2CCCN2C(=O)[C@@H]2CCCN2C(=O)[C@H](CC(C)(C)C)NC(=O)[C@H](CO)NC(=O)[C@H](CCCNC(=N)N)NC(=O)[C@H](CO)NC1=O) [Example 21: AIC+SRS-((tBu)A)-PPI-(Pen)+IPe-NH2]	40 nM	67 nM	–
[Sar]ICSRSLP[Oic]I[Pen]IP[PEG3]-OH (disulfide 3-11; N-terminus assumed; SMILES CC[C@H](C)[C@H](NC(=O)CNC)C(=O)N[C@H]1CSSC(C)(C)[C@@H](C(=O)N[C@H](C(=O)N2CCC[C@H]2C(=O)NCCOCCOCCOCCC(=O)O)[C@@H](C)CC)NC(=O)[C@H]([C@@H](C)CC)NC(=O)[C@@H]2C[C@@H]3CCCC[C@@H]3N2C(=O)[C@@H]2CCCN2C(=O)[C@H](CC(C)C)NC(=O)[C@H](CO)NC(=O)[C@H](CCCNC(=N)N)NC(=O)[C@H](CO)NC1=O) [Example 468: ((N-Me)G)-IC+SRSLP-(Oic)-I-(Pen)+IP-(PEG2(13 atoms))-OH]	80 nM	–	–
